Source: patent US20220362330A1, “Compositions and Methods for Increasing Epithelial Barrier Function” (The Board of Trustees of the Leland Stanford Junior …, priority 2019, published 2022)

Tests used:
genital mucosal barrier [1] = assay: Murine tissue permeability assay, low molecular weight fluorescent molecules given intravaginally; type: in vivo, mice
Protocol: Effects of progestins on genital mucosal barrier permeability were evaluated by intravaginally (ivag) administering 457 Da and 70 KDa-sized fluorescent molecules to mice in estrus or diestrus-stage or after DMPA or LNG treatment. Mice were grouped as follows: untreated in estrus, untreated in diestrus, DMPA treated, or LNG treated. The mice were intravaginally administered a PBS solution containing Lucifer yellow (457 Da) and Texas-Red-conjugated dextran (70 KDa). Animals were euthanized 45 minutes later to assess vaginal tissue penetration of these molecules by confocal microscopy. […] Mucosal permeability was increased moderately by diestrus, but dramatically by DMPA or LNG. Conversely, permeability increases were negligible in estrus-stage mice and mice treated with MePRDL or DMPA and RU486. This indicates exogenous progestins increase genital mucosal permeability.
To evaluate mucosal permeability to low molecular weight molecules, indicated groups of mice were sedated, and 10 μL of a PBS solution containing 62.5 μg of dextran Texas-Red® (DR) (MW=70,000 Da) and 50 μg of Lucifer yellow CH, lithium salt (LY) (MW=457.2 Da) (both from Life Technologies) administered intravaginally. 45 minutes later, mice were euthanized, and excised vaginal tissue fixed in formaldehyde. Fixed tissue was embedded in agarose, and 200-300 μm specimens were sectioned with a vibratome. After counterstaining with 4,6-diamidino-2-phenylindole (DAPI), confocal microscopy images were acquired by sequential scanning to prevent fluorescence crossover.

desmocollin-1 (DSC1) = assay: qRT-PCR of Dsc1 gene expression in vaginal tissue; type: in vivo, mice
Protocol: (§1) To define progestin-mediated changes in mucosal permeability, vaginal tissue from mice in estrus, diestrus, or after DMPA or LNG treatment was used to measure expression of the desmosomal cadherins desmoglein-1a (DSG1a) and desmocollin-1 (DSC1).
(§2) Human ectocervical and murine vaginal tissues were immediately immersed in 1 mL of RNAlater® (Qiagen), stored for 24 h at 4° C., and stored long-term at −80° C. RNA isolated using the RNeasy Lipid Tissue Kit (Qiagen) using manufacturer's instructions was re-suspended in nuclease-free water and quantified using a NanoDrop spectrophotometer (Thermo Scientific). The following mouse primers were utilized: desmocollin 1 (Mm00496525_ml), desmoglein-1α (Mm00809994_s1), ephrinA3 (Mm01212723_g1) and pyruvate carboxylase (Mm00500992_ml) as housekeeping reference gene (all from Thermo Scientific). These human primers were used: desmoglein-1 (Hs00355084_m1) and glucose-6-phosphate isomerase (Hs00976711_m1) as a housekeeping reference gene. To define relative gene expression, 100 ng of RNA was mixed with TaqMan® RNA-to-Ct™ 1-Step Kit and adequate primer (final volume of 10 μL/well) using manufacturer's instructions (Life Technologies). qRT-PCR was performed using a Quantstudio3 Thermal Cycler, and data analyzed via Quanstudio Software (Applied Biosystems).

DSG1 protein = DSG1 protein levels in vaginal tissue, immunofluorescent staining and confocal microscopy; type: in vivo, mice; conditions: for levels of DSG1 protein in vaginal tissue: His-tagged ephrins 1.5 ug/30 uL ivag; for levels of DSG1 protein in vaginal tissue / DSG1 protein levels in vaginal tissue: 24 h; for DSG1 protein levels in vaginal tissue: OVX mice, single ivag dose
Protocol: Excised mouse vaginas were formaldehyde fixed and paraffin embedded (FFPE), and 10 μm sections mounted on glass slides and de-paraffinized by sequential immersion in 100% xylene, 100% ethanol, 96% ethanol, and sterile DEPC-treated water. Antigen retrieval was performed using 10 mM sodium citrate buffer (pH 6.0) containing 0.05% Tween 20 (both Sigma-Aldrich) (20 minutes at 95° C.). After 3 PBS washes, sections were incubated overnight in 10% normal goat serum (Abcam, Cambridge Mass.) at 4° C., then incubated for 1 h at ambient temperate with rabbit anti-desmoglein-1 (clone EPR6766(B)) antibody, washed and incubated for 1 h with AlexaFluor® 488-labeled goat anti-rabbit IgG (antibodies from Abcam) (all antibodies were diluted in PBS with 1% BSA and 0.05% Tween 20). Sections were stained with DAPI and evaluated for levels of DSG1 protein (defined by calculating pixel numbers per 100 μm^2) using confocal microscopy and ImageJ software.

[2] = test system: claudin-1, occludin, and tight junction protein 1; assay: Gene expression of other cell-cell adhesion molecules in vaginal tissue; type: in vivo, mice
desmoglein-1a (DSG1a) = assay: qRT-PCR of Dsg1a gene expression in vaginal tissue; type: in vivo, mice; conditions: for relative expression of Dsg1a: DMPA-treated mice, His-tagged ephrins 1.5 ug/30 uL ivag; for relative expression of Dsg1a / Dsg1a gene expression in vaginal tissue: 24 h; for Dsg1a gene expression in vaginal tissue: OVX mice, single ivag dose
Protocol: as §1, §2

HSV-2 = assay: Lethal genital HSV-2 infection; type: in vivo; conditions: DMPA-treated mice
Protocol: Mice were sedated with xylazine (Lloyd Laboratories, Shenandoah Iowa) and ketamine hydrochloride (JHP Pharmaceuticals, LLC Rochester Mich.), and intravaginally infected with 10^4 plaque-forming units (pfu) of WT HSV-2 333 in 10 μL of RPMI. Mouse mortality was evaluated daily for 15 days.

HSV-1 = assay: Genital HSV-1 GFP infection, virus replication in vaginal epithelium; type: in vivo, mice; conditions: DMPA-treated mice
Protocol: Estrus-stage or DMPA-treated mice were intravaginally administered vehicle or recombinant mouse Fc-EFNA3 at 1.5 ug/30 uL 24 h prior to genital infection with 3×10^3 PFU HSV-1q GFP (fluorescent virus). Vaginal tissue was recovered 24 h after infection and evaluated for HSV-1 replication in the vaginal epithelium using confocal microscopy. […] To evaluate if treatment with rm-EphrinA3 protects mice from lethal HSV-2 infection, DMPA-treated mice were intravaginally administered Fc- or His-tagged versions of the rm-protein prior to infection. […] Because the microarray data indicated EphrinA1, EphrinA2, EphrinA3, EphrinA4, and EphrinA5 were upstream regulators of Dsg1 and Dsc1 expression in the mouse vagina, we hypothesized that capacity of EphrinA3 to increase cell-cell adhesion molecule expression may be shared by other members of the EphrinA family.

genital mucosal barrier [3] = assay: Murine tissue permeability assay, low molecular weight fluorescent molecules given intravaginally; type: in vivo, mice; conditions: OVX mice, single dose, vs untreated OVX mice
[4] = progestin-treated mice vs mice in estrus

## C#C[C@]1(O)CC[C@H]2[C@@H]3CCC4=CC(=O)CC[C@@H]4[C@H]3CC[C@@]21CC [LNG, reference compound]
Genital mucosal barrier [1]; confocal images, 45 minutes after ivag administration
  penetration of the 457 Da molecules into vaginal tissue: greatest penetration
Genital mucosal barrier [1]; mice, ivag Lucifer yellow (457 Da) and Texas-Red dextran (70 KDa), 45 minutes, confocal microscopy
  Mucosal permeability increase: dramatically
desmocollin-1 (DSC1); [4]
  DSC1 gene expression in vaginal tissue: decrease gene expression levels
DSG1 protein; [4]
  DSG1a protein expression in vaginal tissue: significantly reduced
[2]
  gene expression of claudin-1, occludin, and tight junction protein 1: did not alter
desmoglein-1a (DSG1a); [4]
  DSG1a gene expression in vaginal tissue: decrease gene expression levels

B1: EphrinA3: mouse recombinant EphrinA3; Fc- or His-tagged version not always specified at the place (protein, UniProt O08545 23-206, looked up)
Ephrin-A3: QGPGGALGNRHAVYWNSSNQHLRREGYTVQVNVNDYLDIYCPHYNSSGPGGGAEQYVLYMVNLSGYRTCNASQGSKRWECNRQHASHSPIKFSEKFQRYSAFSLGYEFHAGQEYYYISTPTHNLHWKCLRMKVFVCCASTSHSGEKPVPTLPQFTMGPNVKINVLEDFEGENPQVPKLEKSISG
HSV-2; one ivag dose (Fc- or His-tagged) prior to lethal HSV-2 infection, compared to DMPA alone
  reduction of mortality: approximately 25%
Genital mucosal barrier [1]; DMPA-treated mice, one ivag dose of 1.5 ug/30 uL
  genital mucosal barrier function / permeability to LMW fluorescent molecules: enhanced genital mucosal barrier function
HSV-1
  HSV-1 replication in mouse genital tissue: reduced
desmocollin-1 (DSC1); OVX mice, single ivag dose, 24 h
  Dsc1 gene expression in vaginal tissue: increases
DSG1 protein; DMPA-treated mice
  levels of DSG1 protein in vaginal tissue: similarly increase
DSG1 protein; DMPA-treated mice, listed as EFNA3
  levels of DSG1 protein in vaginal tissue: increased levels of DSG1 protein
DSG1 protein
  DSG1 protein levels in vaginal tissue: greatly improved
DSG1 protein; listed as EFNA3
  DSG1 protein levels in vaginal tissue: increases
Genital mucosal barrier [3]
  genital mucosal barrier function (penetration of lucifer yellow, 457 Da): improved function of the genital mucosal barrier
Genital mucosal barrier [3]; listed as EFNA3
  genital mucosal barrier function (penetration of lucifer yellow, 457 Da): enhanced genital mucosal barrier function
desmoglein-1a (DSG1a)
  relative expression of Dsg1a: increased relative expression
  Dsg1a gene expression in vaginal tissue: greatly improved
desmoglein-1a (DSG1a); listed as EFNA3
  Dsg1a gene expression in vaginal tissue: increases

B2: His-EFNA3: Ephrin A3 Protein, Mouse, Recombinant (His Tag), SEQ ID NO: 15 (protein, UniProt P52797 23-214, looked up)
Ephrin-A3: QGPGGALGNRHAVYWNSSNQHLRREGYTVQVNVNDYLDIYCPHYNSSGVGPGAGPGPGGGAEQYVLYMVSRNGYRTCNASQGFKRWECNRPHAPHSPIKFSEKFQRYSAFSLGYEFHAGHEYYYISTPTHNLHWKCLRMKVFVCCASTSHSGEKPVPTLPQFTMGPNVKINVLEDFEGENPQVPKLEKSISG
modifications: His tag
HSV-2; 10^4 pfu of HSV-2
  survival after genital HSV-2 infection: improves the survival
DSG1 protein; DMPA-treated mice, ivag in 10 μL of PBS, 24 hours
  levels of DSG1 protein in genital tissue: increased levels of DSG1 protein

B3: EphrinA2: Ephrin A2/EFNA2 Protein, Mouse, Recombinant (His Tag), SEQ ID NO: 17 (protein)
chain: MAPAQRPLLPLLLLLLPLRARNEDPARANADRYAVYWNRSNPRFQVSAVGDGGGYTVEVSINDYLDIYCPHYGAPLPPAERMERYILYMVNGEGHASCDHRQRGFKRWECNRPAAPGGPLKFSEKFQLFTPFSLGFEFRPGHEYYYISATPPNLVDRPCLRLKVYVRPTNETLYEAPEPIFTSNHHHHHH
modifications: His tag
DSG1 protein; DMPA-treated mice
  levels of DSG1 protein in vaginal tissue: similarly increase
DSG1 protein; DMPA-treated mice, listed as EFNA2
  levels of DSG1 protein in vaginal tissue: increased levels of DSG1 protein
desmoglein-1a (DSG1a)
  relative expression of Dsg1a: increased relative expression
